Series [1] addresses T1, SpoVG (Borrelia burgdorferi, UniProt O51726 1-97).
T1 sequence: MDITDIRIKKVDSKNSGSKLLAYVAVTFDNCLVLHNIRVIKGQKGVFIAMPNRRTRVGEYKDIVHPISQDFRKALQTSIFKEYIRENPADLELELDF
The experiment in a line: EMSA.

The target in series [2] is T1, SpoVG. The experiment in a line: competition.
In series [3] the target is T1, SpoVG. The experiment in a line: competition. This is another data set of the same source.

We go through four molecules from article PMC11086051.

As for UAUGUACUUUUUGCGGGAGGCUUAUAA (ssRNA) [spoVG RNA], the Kd – broadly, a measure of binding affinity in units of concentration – with SpoVG [1] was 59 nM. For the same molecule, the IC50 (commonly the concentration that inhibits the measured activity by half) with SpoVG [2] worked out at 1030 nM. In the case of UAUGUACAAAAAGCGGGAGGCUUAUAA (ssRNA) [RNA-03], the binding result in the series with SpoVG [3] is reported as “binds”. In the case of UAUGUACUUAAAGCGGGAGGCUUAUAA (ssRNA) [RNA-20], the binding result with SpoVG [3] was “binds”. For UAUGUACUUUAAGCGGGAGGCUUAUAA (ssRNA) [RNA-17], in the series with SpoVG [3], the binding result is “binds”.
